Experimental data published in the supplement of paper PMC7877785.
± gives the uncertainty stated by the source.

Assay: self-splicing fitness, log relative to wild type (ln ratio); higher = more splicing; Tetrahymena group I intron in knt gene, E. coli kanamycin selection, DiMSum; sequences stand for … in CUCUCU…GGAGGGAAAAGUUAUCAGGCAUGCACCUGGUAGCUAGUCUUUAAACCAAUAGAUUGCAUCGGUUUAAAAGGCAAGACCGUCAAAUUGCGGGAAAGGGGUCAACAGCCGUUCAGUACCAAGUCUCAGGGGAAACUUUGAGAUGGCCUUGCAAAGGGUAUGGUAAUAAGCUGACGGACAUGGUCCUAACCACGCAGCCAAGUCCUAAGUCAACAGAUCUUCUGUUGAUAUGGAUGCAGUUCACAGACUAAAUGUCGGUCGGGGAAGAUGUAUUCUUCUCAUAAGAUAUAGUCGGACCUCUCCUUAAUGGGAGCUAGCGGAUGAAGUGAUGCAACACUGGAGCCGCUGGGAACUAAUUUGUAUGCGAAAGUAUAUUGAUUAGUUUUGGAGUACUCGUGGUCG
In short: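 Pooled colonies went to amplicon sequencing on an Illumina HiSeq 2500 after six replicate transformations. The plates were LB agar with 100 μg/mL carbenicillin, 50 μM IPTG and 0.2% rhamnose, with or without 25 μg/mL kanamycin, incubated overnight at 37°C or 30°C. The E. coli BL21(DE3) library had all eight P1ex-region intron nucleotides randomised, the intron placed in the knt kanamycin-resistance gene on pET-22b(+). DiMSum fitness is the error-weighted combination of replicate fold changes, kanamycin against none, normalised to wild type.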

CUGAAGCAAUAUUACGUACA
self-splicing fitness (ln) (30 °C): -2.36 ± 0.21
self-splicing fitness (ln) (37 °C): -1.39 ± 0.25

CUGAAGCAAUAUUACGUGGA
self-splicing fitness (ln) (30 °C): -4.08 ± 0.3
self-splicing fitness (ln) (37 °C): -2.63 ± 0.27

CUGAAGCAAUAUUACGUGUA
self-splicing fitness (ln) (30 °C): -4.08 ± 0.24
self-splicing fitness (ln) (37 °C): -2.12 ± 0.2

CUGAAGCAAUAUUACGUUCC
self-splicing fitness (ln) (37 °C): -2.57 ± 0.3

CUGCAGCAAUAUUACGAACA
self-splicing fitness (ln) (30 °C): -3.3 ± 0.24
self-splicing fitness (ln) (37 °C): -1.49 ± 0.14

CUGCAGCAAUAUUACGAAGG
self-splicing fitness (ln) (30 °C): -2.05 ± 0.13
self-splicing fitness (ln) (37 °C): -1.06 ± 0.16

CUGCAGCAAUAUUACGAAUA
self-splicing fitness (ln) (30 °C): -1.74 ± 0.45
self-splicing fitness (ln) (37 °C): -1.3 ± 0.2

CUGCAGCAAUAUUACGACAU
self-splicing fitness (ln) (30 °C): -1.04 ± 0.012
self-splicing fitness (ln) (37 °C): -0.363 ± 0.032

CUGCAGCAAUAUUACGACCC
self-splicing fitness (ln) (30 °C): -3.76 ± 0.36
self-splicing fitness (ln) (37 °C): -1.05 ± 0.48

CUGCAGCAAUAUUACGAGAG
self-splicing fitness (ln) (30 °C): -1.64 ± 0.12
self-splicing fitness (ln) (37 °C): -2.96 ± 0.22

CUGCAGCAAUAUUACGAGCA
self-splicing fitness (ln) (30 °C): -3.11 ± 0.21
self-splicing fitness (ln) (37 °C): -2.38 ± 0.22

CUGCAGCAAUAUUACGAUGG
self-splicing fitness (ln) (30 °C): -1.7 ± 0.08
self-splicing fitness (ln) (37 °C): -1.18 ± 0.1

CUGCAGCAAUAUUACGCACG
self-splicing fitness (ln) (30 °C): -1.03 ± 0.047
self-splicing fitness (ln) (37 °C): -0.409 ± 0.069

CUGCAGCAAUAUUACGCAUU
self-splicing fitness (ln) (30 °C): -4.22 ± 0.2
self-splicing fitness (ln) (37 °C): -2.21 ± 0.23

CUGCAGCAAUAUUACGCGAA
self-splicing fitness (ln) (30 °C): -3.31 ± 0.33
self-splicing fitness (ln) (37 °C): -2.52 ± 0.27

CUGCAGCAAUAUUACGCGCG
self-splicing fitness (ln) (30 °C): -1.6 ± 0.075
self-splicing fitness (ln) (37 °C): -0.249 ± 0.087

CUGCAGCAAUAUUACGCGGU
self-splicing fitness (ln) (30 °C): -2.5 ± 0.15
self-splicing fitness (ln) (37 °C): -2.89 ± 0.23

CUGCAGCAAUAUUACGGCGC
self-splicing fitness (ln) (30 °C): -3.82 ± 0.3
self-splicing fitness (ln) (37 °C): -2.75 ± 0.4

CUGCAGCAAUAUUACGGGAU
self-splicing fitness (ln) (30 °C): -2.46 ± 0.096
self-splicing fitness (ln) (37 °C): -2.1 ± 0.15

CUGCAGCAAUAUUACGGUAG
self-splicing fitness (ln) (30 °C): -3.65 ± 0.1
self-splicing fitness (ln) (37 °C): -2.45 ± 0.11

CUGCAGCAAUAUUACGGUUA
self-splicing fitness (ln) (30 °C): -2.6 ± 0.16
self-splicing fitness (ln) (37 °C): -1.03 ± 0.12

CUGCAGCAAUAUUACGGUUG
self-splicing fitness (ln) (30 °C): -1.02 ± 0.13
self-splicing fitness (ln) (37 °C): -1.83 ± 0.19

CUGCAGCAAUAUUACGUCAC
self-splicing fitness (ln) (30 °C): -3.39 ± 0.31

CUGCAGCAAUAUUACGUGGA
self-splicing fitness (ln) (30 °C): -2.92 ± 0.16
self-splicing fitness (ln) (37 °C): -3.04 ± 0.2

CUGCAGCAAUAUUACGUGUC
self-splicing fitness (ln) (30 °C): -4.46 ± 0.28
self-splicing fitness (ln) (37 °C): -2.79 ± 0.29

CUGCAGCAAUAUUACGUUAU
self-splicing fitness (ln) (30 °C): -3.94 ± 0.17
self-splicing fitness (ln) (37 °C): -3.07 ± 0.3

CUGCAGCAAUAUUACGUUCG
self-splicing fitness (ln) (30 °C): -0.733 ± 0.074
self-splicing fitness (ln) (37 °C): -0.62 ± 0.095

CUGGAGCAAUAUUACGCACG
self-splicing fitness (ln) (30 °C): -0.0736 ± 0.32
self-splicing fitness (ln) (37 °C): -1.08 ± 0.29

CUGGAGCAAUAUUACGCAUC
self-splicing fitness (ln) (37 °C): -0.757 ± 0.42

CUGGAGCAAUAUUACGGACC
self-splicing fitness (ln) (30 °C): -3.79 ± 0.24
self-splicing fitness (ln) (37 °C): -2.04 ± 0.34

CUGGAGCAAUAUUACGGAUG
self-splicing fitness (ln) (30 °C): -1.12 ± 0.16
self-splicing fitness (ln) (37 °C): -0.927 ± 0.14

CUGGAGCAAUAUUACGGGAC
self-splicing fitness (ln) (30 °C): 0.251 ± 0.35
self-splicing fitness (ln) (37 °C): -1.08 ± 0.41

CUGGAGCAAUAUUACGGGCU
self-splicing fitness (ln) (30 °C): -3.05 ± 0.37
self-splicing fitness (ln) (37 °C): -2.46 ± 0.49

CUGGAGCAAUAUUACGGGGA
self-splicing fitness (ln) (30 °C): -3.21 ± 0.28
self-splicing fitness (ln) (37 °C): -2.39 ± 0.37

CUGGAGCAAUAUUACGGGUC
self-splicing fitness (ln) (30 °C): -1.97 ± 0.16
self-splicing fitness (ln) (37 °C): -2.26 ± 0.34

CUGGAGCAAUAUUACGGUAG
self-splicing fitness (ln) (30 °C): -2.51 ± 0.22
self-splicing fitness (ln) (37 °C): -0.514 ± 0.16

CUGGAGCAAUAUUACGGUUA
self-splicing fitness (ln) (30 °C): -1.79 ± 0.26
self-splicing fitness (ln) (37 °C): -2.31 ± 0.26

CUGGAGCAAUAUUACGGUUG
self-splicing fitness (ln) (30 °C): -1.87 ± 0.081
self-splicing fitness (ln) (37 °C): -1.11 ± 0.095

CUGGAGCAAUAUUACGUAUU
self-splicing fitness (ln) (30 °C): -3.84 ± 0.31
self-splicing fitness (ln) (37 °C): -2.09 ± 0.27

CUGGAGCAAUAUUACGUCCC
self-splicing fitness (ln) (37 °C): -1.4 ± 0.46

CUGGAGCAAUAUUACGUCCU
self-splicing fitness (ln) (30 °C): -3.17 ± 0.16
self-splicing fitness (ln) (37 °C): -2.56 ± 0.22

CUGGAGCAAUAUUACGUUAU
self-splicing fitness (ln) (30 °C): -4.35 ± 0.31
self-splicing fitness (ln) (37 °C): -2.82 ± 0.26

CUGGAGCAAUAUUACGUUGC
self-splicing fitness (ln) (30 °C): -3.09 ± 0.33

CUGGAGCAAUAUUACGUUGU
self-splicing fitness (ln) (30 °C): -2.64 ± 0.29
self-splicing fitness (ln) (37 °C): -3.72 ± 0.33

CUGUAGCAAUAUUACGAACA
self-splicing fitness (ln) (30 °C): -2 ± 0.41

CUGUAGCAAUAUUACGAUAC
self-splicing fitness (ln) (30 °C): -2.43 ± 0.29

CUGUAGCAAUAUUACGAUAG
self-splicing fitness (ln) (30 °C): -1.9 ± 0.23
self-splicing fitness (ln) (37 °C): -1.17 ± 0.15

CUGUAGCAAUAUUACGAUAU
self-splicing fitness (ln) (30 °C): -4.06 ± 0.32
self-splicing fitness (ln) (37 °C): -2.75 ± 0.32

CUGUAGCAAUAUUACGAUCU
self-splicing fitness (ln) (30 °C): -3.56 ± 0.26
self-splicing fitness (ln) (37 °C): -2.05 ± 0.29
